For assay [1], the target named is L19-UG-TNFRII (human) (UniProt P20333). Nature of the assay: SEC; Superdex 200 (S200) FPLC of purified L19-UG-TNFRII in native conditions. In general terms: In gel filtration, larger molecules generally elute earlier.
Assay [2] shares this target. Nature of the assay: SDS-PAGE, non-reducing; SDS-PAGE 4%-12% of purified L19-UG-TNFRII under non-reducing conditions.

Broadly, the stoichiometry N is the number of molecules, sites or subunits per partner or assembly. In the case of “L19-UG-TNFRII (from UniProt P20333 23-257)”, the stoichiometry N with L19-UG-TNFRII (human) [1] and with L19-UG-TNFRII (human) [2] was 2 in each case.

For the origin of these results see PMC3226451.
